Measurements published in patent US20100292104A1 (LAWRENCE LIVERMORE NATIONAL SECURITY, published 2010).

B1: DnaE C-intein polypeptide photocaged at Gly31 (peptide)
peptide: not shown
modifications: Gly31 backbone amide caged with nitroveratryl (1,2-dimethoxy-4-methyl-3-nitro-benzyl) group; C-terminal PEGylated thiol linker; Cys37 protected as S-tBu during synthesis
B2: DnaE C-intein polypeptide photocaged at Gly11 (peptide)
peptide: not shown
modifications: Gly11 backbone amide caged with nitroveratryl (1,2-dimethoxy-4-methyl-3-nitro-benzyl) group; C-terminal PEGylated thiol linker; Cys37 protected as S-tBu during synthesis
B3: DnaE C-intein polypeptide photocaged at Gly19 (peptide)
peptide: not shown
modifications: Gly19 backbone amide caged with nitroveratryl (1,2-dimethoxy-4-methyl-3-nitro-benzyl) group; C-terminal PEGylated thiol linker; Cys37 protected as S-tBu during synthesis
B4: DnaE C-intein polypeptide photocaged at Gly6 (peptide)
peptide: not shown
modifications: Gly6 backbone amide caged with nitroveratryl (1,2-dimethoxy-4-methyl-3-nitro-benzyl) group; C-terminal PEGylated thiol linker; Cys37 protected as S-tBu during synthesis

molecular target: Maltose Binding Protein (MBP)-N-intein fusion protein (Synechocystis sp. PCC6803, UniProt P74750 771-897); assay: cell-based or functional assay

trans-splicing activity relative to the non-photocaged C-intein polypeptide [%]	Binder
10	B1
~60	B2
~30	B3
~30	B4
